Assay results from patent US20220289850 (published 2022).

Target: T1, mouse integrin avb8 (mouse)
T1 chain 1: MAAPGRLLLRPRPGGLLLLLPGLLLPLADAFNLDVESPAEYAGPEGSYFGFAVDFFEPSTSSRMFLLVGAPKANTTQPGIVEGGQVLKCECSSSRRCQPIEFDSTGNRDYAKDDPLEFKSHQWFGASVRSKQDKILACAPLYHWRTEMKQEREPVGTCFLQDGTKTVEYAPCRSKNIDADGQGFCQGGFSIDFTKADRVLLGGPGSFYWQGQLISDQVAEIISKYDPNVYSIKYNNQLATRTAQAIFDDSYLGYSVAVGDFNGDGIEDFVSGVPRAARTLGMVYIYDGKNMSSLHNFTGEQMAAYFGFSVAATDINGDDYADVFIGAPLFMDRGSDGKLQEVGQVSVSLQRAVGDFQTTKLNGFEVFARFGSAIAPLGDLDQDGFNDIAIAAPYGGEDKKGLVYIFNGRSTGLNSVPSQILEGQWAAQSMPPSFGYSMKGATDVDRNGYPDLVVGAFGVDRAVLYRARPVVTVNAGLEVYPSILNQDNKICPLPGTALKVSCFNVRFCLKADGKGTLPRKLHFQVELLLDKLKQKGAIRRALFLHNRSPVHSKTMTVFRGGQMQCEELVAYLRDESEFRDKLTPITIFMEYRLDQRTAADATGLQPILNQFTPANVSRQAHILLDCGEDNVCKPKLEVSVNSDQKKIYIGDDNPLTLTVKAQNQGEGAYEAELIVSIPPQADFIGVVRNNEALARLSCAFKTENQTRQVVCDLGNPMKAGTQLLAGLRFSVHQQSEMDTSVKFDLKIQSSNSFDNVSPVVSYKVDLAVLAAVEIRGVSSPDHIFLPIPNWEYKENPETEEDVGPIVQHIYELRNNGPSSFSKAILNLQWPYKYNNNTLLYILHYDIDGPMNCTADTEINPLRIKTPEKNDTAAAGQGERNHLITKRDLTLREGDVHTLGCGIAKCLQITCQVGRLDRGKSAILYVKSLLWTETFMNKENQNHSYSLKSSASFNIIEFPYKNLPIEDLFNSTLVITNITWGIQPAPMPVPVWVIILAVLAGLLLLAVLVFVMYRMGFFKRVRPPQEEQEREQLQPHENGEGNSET
T1 chain 2: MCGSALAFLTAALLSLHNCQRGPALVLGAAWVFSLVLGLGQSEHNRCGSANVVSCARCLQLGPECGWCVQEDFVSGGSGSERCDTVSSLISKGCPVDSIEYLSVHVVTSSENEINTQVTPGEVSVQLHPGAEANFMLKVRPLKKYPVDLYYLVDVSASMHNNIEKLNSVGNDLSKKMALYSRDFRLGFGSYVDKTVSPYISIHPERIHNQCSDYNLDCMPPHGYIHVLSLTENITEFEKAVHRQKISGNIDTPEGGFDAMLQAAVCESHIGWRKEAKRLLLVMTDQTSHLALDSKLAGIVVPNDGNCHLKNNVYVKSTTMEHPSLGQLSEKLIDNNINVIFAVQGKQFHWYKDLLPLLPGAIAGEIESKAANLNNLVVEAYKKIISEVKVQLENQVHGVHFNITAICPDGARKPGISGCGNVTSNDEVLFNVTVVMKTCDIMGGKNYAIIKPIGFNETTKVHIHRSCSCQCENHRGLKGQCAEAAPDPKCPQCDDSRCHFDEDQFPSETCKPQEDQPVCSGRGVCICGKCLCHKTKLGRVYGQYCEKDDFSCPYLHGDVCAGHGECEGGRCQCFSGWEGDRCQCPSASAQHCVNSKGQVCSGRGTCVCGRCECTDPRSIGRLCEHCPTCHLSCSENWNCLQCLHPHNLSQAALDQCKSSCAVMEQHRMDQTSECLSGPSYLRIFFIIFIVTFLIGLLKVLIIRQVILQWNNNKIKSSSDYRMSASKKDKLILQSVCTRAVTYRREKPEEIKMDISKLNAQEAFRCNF
Assay: FACS C8-S cells

EC50: 0.145 nM
B1: ADWA11 2.4 IgG (antibody)
chain 1: EVQLVESGGGLVQPGGSLRLSCAASGFNIKDYYMNWVRQAPGKGLEWVGWIDPDQGNTIYEPKFQGRFTISADTSKNSAYLQMNSLRAEDTAVYYCARRLLMDYWGQGTLVTVSSASTKGPSVFPLAPSSKSTSGGTAALGCLVKDYFPEPVTVSWNSGALTSGVHTFPAVLQSSGLYSLSSVVTVPSSSLGTQTYICNVNHKPSNTKVDKKVEPKSCDKTHTCPPCPAPEAAGAPSVFLFPPKPKDTLMISRTPEVTCVVVDVSHEDPEVKFNWYVDGVEVHNAKTKPREEQYNSTYRVVSVLTVLHQDWLNGKEYKCKVSNKALPAPIEKTISKAKGQPREPQVYTLPPSREEMTKNQVSLTCLVKGFYPSDIAVEWESNGQPENNYKTTPPVLDSDGSFFLYSKLTVDKSRWQQGNVFSCSVMHEALHNHYTQKSLSLSPGK
chain 2: DIQMTQSPSSLSASVGDRVTITCRSTKSLSHFNGNTYLFWYQQKPGKAPKRLIYYMSSLASGVPSRFSGSGSGTDFTLTISSLQPEDFATYYCQQSLEYPFTFGGGTKVEIKRTVAAPSVFIFPPSDEQLKSGTASVVCLLNNFYPREAKVQWKVDNALQSGNSQESVTEQDSKDSTYSLSSTLTLSKADYEKHKVYACEVTHQGLSSPVTKSFNRGEC
